The values below come from patent US20210188980A1 (SHANGHAI EPIMAB BIOTHERAPEUTICS, published 2021).

For assay [1], the target named is Cyno PD-1-His (cynomolgus, UniProt B0LAJ3 25-170). The assay is described as follows: BLI Octet, FIT-Ig captured, antigen analyte. On the technique in general: BLI is a label-free optical method that tracks binding on a fibre tip over time.
Assay [2] addresses T1, recombinant human LAG-3-his protein (Novoprotein) (human, UniProt P18627 23-450).
T1 construct: Bought; also called huLAG-3; not shown: His tag
T1 sequence (looked up): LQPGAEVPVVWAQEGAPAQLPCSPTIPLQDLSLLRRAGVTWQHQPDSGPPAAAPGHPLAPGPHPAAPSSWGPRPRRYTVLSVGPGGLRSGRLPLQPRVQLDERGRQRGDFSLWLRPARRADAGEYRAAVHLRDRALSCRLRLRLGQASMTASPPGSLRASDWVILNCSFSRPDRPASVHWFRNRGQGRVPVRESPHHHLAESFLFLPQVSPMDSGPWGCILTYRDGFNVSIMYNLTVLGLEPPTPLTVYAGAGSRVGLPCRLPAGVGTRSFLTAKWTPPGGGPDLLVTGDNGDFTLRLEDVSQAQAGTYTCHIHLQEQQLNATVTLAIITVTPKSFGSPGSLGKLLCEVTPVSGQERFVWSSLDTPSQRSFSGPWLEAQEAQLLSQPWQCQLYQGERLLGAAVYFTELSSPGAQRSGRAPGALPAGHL
The assay is described as follows: BLI Octet, FIT-Ig captured, antigen analyte.

In assay [3] the target is T2, human PD-1-His protein (human, UniProt Q15116 25-167, limits assumed).
T2 construct: also called huPD-1; not shown: His tag
T2 sequence (Q15116 25-167 limits assumed): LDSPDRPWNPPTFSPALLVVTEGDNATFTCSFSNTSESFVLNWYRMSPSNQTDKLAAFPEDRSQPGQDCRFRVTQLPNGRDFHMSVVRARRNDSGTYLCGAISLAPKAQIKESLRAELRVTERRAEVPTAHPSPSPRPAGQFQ
Description: BLI Octet, FIT-Ig captured, antigen analyte.

The target of assay [4] is Cyno LAG-3-His (cynomolgus). Description: BLI Octet, FIT-Ig captured, antigen analyte.
Assay [5] deals with T3, human LAG-3 expressed on cells (human, UniProt P18627 23-525).
T3 construct: whole, on cells; also called HEK 293F cells expressing human LAG-3; T hybridoma-huLAG-3 cells
T3 sequence (looked up): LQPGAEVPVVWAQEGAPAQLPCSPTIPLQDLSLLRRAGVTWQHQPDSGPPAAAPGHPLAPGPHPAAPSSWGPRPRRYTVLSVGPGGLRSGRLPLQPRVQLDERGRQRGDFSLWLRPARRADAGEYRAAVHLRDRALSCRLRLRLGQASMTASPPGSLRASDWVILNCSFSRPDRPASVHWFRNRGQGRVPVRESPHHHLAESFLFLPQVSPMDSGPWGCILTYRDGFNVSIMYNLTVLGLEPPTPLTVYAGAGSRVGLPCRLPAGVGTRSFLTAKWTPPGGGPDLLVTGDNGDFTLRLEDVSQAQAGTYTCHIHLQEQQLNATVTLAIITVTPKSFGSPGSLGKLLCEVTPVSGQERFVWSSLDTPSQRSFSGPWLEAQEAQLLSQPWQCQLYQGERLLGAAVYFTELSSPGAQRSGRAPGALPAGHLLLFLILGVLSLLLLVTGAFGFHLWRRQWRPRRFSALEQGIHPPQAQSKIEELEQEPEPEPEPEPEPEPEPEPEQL
Description: flow cytometry, biotinylated FIT-Ig + FITC-streptavidin, CD3 T cells; panel 'PBMC stimulation for 72h, PD1 antibody treated group'; PD-1 pre-blocked with unlabelled HumAb713-7, so the signal is laid to LAG-3. Here is the method:
(§1) To further evaluate the cell surface binding ability of FIT107-1-7b-1, the parental antibodies HumAb713-7, HumAb747V-67, and the bispecific FIT-Ig FIT107-1-7b-1 were biotinylated with biotin reagent (Sigma, Cat. No. S3259). For PBMC without stimulation, PBMCs were re-suspended at 5×10⁶ cells/mi. For PD-1 antibody (HumAb713-7) or LAG-3 antibody (HumAb747V-67) testing, 100 μg/ml of antibody were added and the reaction mixture allowed to incubate at 37° C. for 40 minutes separately, followed by two washes with FACS buffer. Then 100 μl, 5×10⁵ PBMC/well (untreated group, anti-PD-1 antibody treated group and anti-LAG-3 antibody treated group) were seeded into wells of 96-well plate. Biotinylated HumAb713-7, HumAb747V-67 and FIT107-1-7b-1 were added and incubated at 37° C. for 40 minutes (final working concentration starting from 100 nM with 3-fold serial dilution) followed by washing with FACS buffer twice. FITC-streptavidin and BV421-anti human-CD3 antibody were added and the assay plate incubated at 4° C. for 30 minutes, followed by washing with FACS buffer twice. The plate was analyzed with a Beckman Coulter CytoFlex flow cytometer, PBMC stimulation groups were stimulated with anti-CD3 plus anti-CD28 antibody for 72 hours, to induce PD-1 and LAG-3 expression on T cells. […]
(Flow cytometry measures light scatter and fluorescence of single cells or particles in a stream.)

The target of assay [6] is T4, human LAG-3 ECD/Fc fusion protein (human).
T4 construct: also called HuLAG-3 ECD/Fc
Description: SPR Biacore, HuPD-1 ECD/Fc and HuLAG-3 ECD/Fc both on chip, Ab analyte.

The target in assay [7] is T4, human LAG-3 ECD/Fc fusion protein. Description: SPR Biacore, HuLAG-3 ECD/Fc on chip, Ab analyte. In general terms: SPR reads the build-up and loss of mass on a sensor chip optically.
Assay [8] has as its target T5, human PD-1 expressed on cells (human, UniProt Q15116 25-288).
T5 construct: whole, on cells; also called CHO-K1/huPD-1; CHO-K1-hPD-1 cells
The assay is described as follows: cell RBA FACS; competitor PD-L2/Fc.

Assay [9] addresses T5, human PD-1 expressed on cells. Description: cell RBA FACS; competitor PD-L1/Fc.
For assay [10] the target is unchanged. The assay is described as follows: flow cytometry, biotinylated antibody + FITC-streptavidin, CD3 T cells; panel 'PBMC without stimulation, Lag3 antibody treated group' (cells pre-treated with unlabelled HumAb747V-67). As for the experimental part:
as §1

Assay [11] deals with T2, human PD-1-His protein. The assay is described as follows: SPR Biacore.
The target in assay [12] is T5, human PD-1 expressed on cells. Description: flow cytometry, biotinylated antibody + FITC-streptavidin, CD3 T cells; panel 'PBMC stimulation for 72h, Lag3 antibody treated group' (cells pre-treated with unlabelled HumAb747V-67). Here is the method:
as §1

Assay [13] has the same target. The assay is described as follows: flow cytometry, biotinylated antibody + FITC-streptavidin, CD3 T cells; panel 'PBMC stimulation for 72h, untreated group' (anti-CD3 plus anti-CD28). As for the experimental part: as §1
The target is the same in assay [14]. The assay is described as follows: flow cytometry, biotinylated antibody + FITC-streptavidin, CD3 T cells; panel 'PBMC without stimulation, untreated group'. Here is the method:
as §1

Assay [15] has the same target. The assay is described as follows: cell-based or functional assay.
Assay [16] addresses T3, human LAG-3 expressed on cells. Description: cell-based or functional assay.
Assay [17] addresses T1, recombinant human LAG-3-his protein …. Description: BLI Octet, Ab on AHC sensor, huLAG-3-his; test group 2. As for the experimental part: All 9 humanized antibodies (Table 25) and a chimeric antibody having the parental murine VH and VL domains (mAb747c) were ranked by dissociation rate constant (koff). Briefly, antibodies were characterized for affinities and binding kinetics by Octet RED96 biolayer interferometry (Pall FortéBio LLC). Antibodies were captured by Anti-HIgG Fc Capture (AHC) Biosensors (Pall) at a concentration of 100 nM for 30 seconds. Sensors were then dipped into running buffer (1× pH7.2 PBS, 0.05% Tween 20, 0.1% BSA) for 60 seconds to check baseline. Binding was measured by dipping sensors into a single concentration of recombinant human LAG-3-his protein (Novoprotein). Dissociation was followed by dipping sensors into running buffer for 1200 seconds. The association and dissociation curves were fitted to a 1:1 Langmuir binding model using FortéBio Data Analysis software (Pall).
All 13 humanized antibodies (Table 39) and chimeric anti-LAG-3 antibody mAb747c having the parental murine VH and VL domains were ranked by dissociation rate constant (koff) in the same manner described in Example 9.1 supra. In each test group, the off-rates of antibodies were able to be compared with that of mAb747c. The off-rate ratios were calculated by the off-rate of antibody to that of mAb747c of its group and were compared all together. The lower the ratio was, the higher was the affinity of the antibody.

In assay [18] the target is T3, human LAG-3 expressed on cells. Description: flow cytometry, biotinylated antibody + FITC-streptavidin, CD3 T cells; panel 'PBMC stimulation for 72h, PD1 antibody treated group' (cells pre-treated with unlabelled HumAb713-7). As for the experimental part:
as §1

Assay [19] has the same target. The assay is described as follows: flow cytometry, biotinylated antibody + FITC-streptavidin, CD3 T cells; panel 'PBMC stimulation for 72h, untreated group' (anti-CD3 plus anti-CD28). Here is the method:
as §1

T5 sequence (Q15116 25-288): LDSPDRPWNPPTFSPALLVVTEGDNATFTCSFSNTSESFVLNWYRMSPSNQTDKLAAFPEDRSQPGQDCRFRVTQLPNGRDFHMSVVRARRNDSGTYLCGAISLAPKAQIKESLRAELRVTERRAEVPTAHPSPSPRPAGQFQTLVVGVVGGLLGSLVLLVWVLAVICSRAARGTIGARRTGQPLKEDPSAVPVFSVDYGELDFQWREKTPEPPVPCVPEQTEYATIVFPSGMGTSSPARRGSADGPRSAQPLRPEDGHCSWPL
Cyno PD-1-His, sequence (B0LAJ3 entry or part of it limits assumed): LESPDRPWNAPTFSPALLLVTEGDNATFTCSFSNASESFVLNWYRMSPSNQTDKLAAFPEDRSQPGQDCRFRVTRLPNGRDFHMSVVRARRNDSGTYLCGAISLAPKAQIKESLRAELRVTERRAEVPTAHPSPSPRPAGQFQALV

B1: FIT107-1-7b-1 (bispecific antibody, human IgG1, kappa, L234A L235A)
chain 1: not shown
chain 2: EVQLVQSGAEVKKPGATVKLSCTASGFNIKDDYMHWVKQRPEQGLDWIGWIVPENANTVYASKFQGKATITADTSTNTAYLELSSLRSEDTAVYYCTVYGDYWGQGTTVTVSSASTKGPSVFPLAPSSKSTSGGTAALGCLVKDYFPEPVTVSWNSGALTSGVHTFPAVLQSSGLYSLSSVVTVPSSSLGTQTYICNVNHKPSNTKVDKKVEPKSC
chain 3: not shown
notes: FIT-Ig hexamer; outer Fab anti-LAG-3 (HumAb747V-67 with VH G55A), inner Fab anti-PD-1 (HumAb713-7); also called FIT107-7b-1
On to B1, for which the Kd was 3.61 nM in assay [1], 1.22 nM in [2], 10.4 nM in assay [3] and 0.123 nM in [4]. The koff was found to be 0.000775 s⁻¹ in assay [1], 0.000243 s⁻¹ in assay [2], 0.000935 s⁻¹ in assay [3] and 6.36e-05 s⁻¹ in assay [4]. In addition, the kon in assay [1] was determined as 215000 M⁻¹ s⁻¹; in assay [2], 200000 M⁻¹ s⁻¹; in [3] it was 89600 M⁻¹ s⁻¹; in assay [4] it was 519000 M⁻¹ s⁻¹. For the same molecule, in [5], the “EC50 (read off the curve)” value is about 1 nM.

B2: mAb746c (antibody, V domains shown)
VH: EVQLQQSGAELVRPGASVKLSCTASDFNIKDDYMHWVKQRPEQGLDWIGWIVPENGNTEYASKFQGKATITADTSSNTAYLQLSSLTSEDTAVYYCTVYGDYWGQGTTLTVSS
VL: DIQMTQSPSSLSASLGERVSLNCRASQEISGYLSWLQQKSDGTIKRLIYAASTLDSGVPKRFSGSRSGSDYSLTISSLESEDFADYYCLQYASYPLTFGAGTKLELK
In assay [6], B2 registered a Kd of 16.2 nM, a koff of 0.000154 s⁻¹ and a kon of 9510 M⁻¹ s⁻¹. For the same molecule, in assay [7], binding was put at a Kd of 32.5 nM, the koff was 0.000181 s⁻¹ and the kon came to 5580 M⁻¹ s⁻¹.

B3: HumAb713-7 (antibody, human IgG1, kappa, L234A L235A, V domains shown)
VH: EVQLVESGGGLVQPGGSLRLSCAASGFTSSDYGMHWVRQAPGKGLEWVSYISSGSYTIYYADTVKGRFTISRDNAKNSLYLQMNSLRDEDTAVYYCAKRGGSSHVNVMDYWGQGTTVTVSS
VL: DIQMTQSPSSLSASVGDRVTITCKASDHINNWLAWYQQKPGKAPKLLIYGATSLETGVPSRFSGSGSGTDYTFTISSLQPEDIATYYCQQYWSPPYTFGGGTKVEIKR
notes: humanized mAb713
Regarding B3, the IC50 was 1.4 nM in assay [8] and 0.76 nM in assay [9]. For the same molecule, the “EC50 (read off the curve)” value is about 3 nM in assay [10], about 3 nM in assay [12], about 2 nM in assay [13] and about 3 nM in assay [14]. Binding in assay [11] was characterised by a dissociation constant (Kd) of 2.83 nM. Moreover, the koff in [11] is 0.00035 s⁻¹. In [11], the kon came to 124000 M⁻¹ s⁻¹.

B4: FIT107-1-2a (bispecific antibody, human IgG1, kappa, L234A L235A)
chain 1: not shown
chain 2: EVKLVESGGGLVKPGGSLKLSCAASGFTFSFYTMSWVRQTPEKRLEWVATISGGGRDTYYPDSVKGRFTISRDNAKNTLYLHMSSLRSEDTALYYCAGQGGNYLFAYWGQGTLVTVSAASTKGPSVFPLAPSSKSTSGGTAALGCLVKDYFPEPVTVSWNSGALTSGVHTFPAVLQSSGLYSLSSVVTVPSSSLGTQTYICNVNHKPSNTKVDKKVEPKSC
chain 3: DIQMTQSPSSLSASLGERVSLNCRASQEISGYLSWLQQKSDGTIKRLIYAASTLDSGVPKRFSGSRSGSDYSLTISSLESEDFADYYCLQYASYPLTFGAGTKLELKRTVAAPSVFIFPPSDEQLKSGTASVVCLLNNFYPREAKVQWKVDNALQSGNSQESVTEQDSKDSTYSLSSTLTLSKADYEKHKVYACEVTHQGLSSPVTKSFNRGEC
Regarding B4, the “MLR, IFN-γ production, EC50” value in assay [15] and in [16] was 0.508 nM throughout.

B5: HumAb747V-67 (antibody, human IgG1, V domains shown)
VH: EVQLVQSGAEVKKPGATVKLSCTASGFNIKDDYMHWVKQRPEQGLDWIGWIVPENGNTVYASKFQGKATITADTSTNTAYLELSSLRSEDTAVYYCTVYGDYWGQGTTVTVSS
VL: DIQMTQSPSSLSASVGDRVTITCRASQEISGYLSWLQQKPGGAIKRLIYAASALDSGVPSRFSGSRSGSDYTLTISSLQPEDFADYYCLQYASYPLTFGQGTKLELK
notes: engineered HumAb747-60 variant; human IgG1/kappa constant domains
Take B5: in [17], the koff came out at 0.000319 s⁻¹ and the “off-rate ratio to that of mAb747c” value worked out at 47%. Besides, in [18], the “EC50 (read off the curve)” value lay within 1 to 2 nM. Further, in assay [19], the “EC50 (read off the curve)” value was about 1 nM.

Usually Kd stands for the constant that tells how readily two partners part at equilibrium. By koff is commonly meant a measure of how fast the partners let go of each other. A word on the kon: it is a measure of how fast the partners come together. As usually defined, the EC50 (read off the curve) is the concentration at which the effect is half-maximal. The IC50 is the concentration at which inhibition is half-maximal. A low value points to greater potency in that assay.
